Experimental data from patent US20190367612A1 (Daiichi Sankyo, published 2019).
Changes are numbered by the printed parent chain.

T1: human GPRC5D amino-terminal peptide MYKDCIESTGDYFLLCDAEGPWGIILE-K(Biotin)-NH2, having an intramolecular … (human, C-terminal lysine carrying biotin, C-terminal amide; intramolecularly formed disulfide bond)
T1 construct: Peptide Institute synthetic peptide; also called amino-terminal peptide of biotinylated human GPRC5D (disulfide bond present)
T1 peptide: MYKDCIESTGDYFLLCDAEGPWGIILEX

B1: humanized anti-GPRC5D antibody h7B4_H3/L2 (antibody, human IgG1, kappa)
heavy: not shown
light: DIQMTQSPSSLSLSPGERATLSCKASQNINKYLDWYQQKPGQPPRLLIYNTNNLHTGIPDRFSGSGSGTDYTLTISRLEPEDFAVYYCLQRNSWYTFGQGTKVEIKRTVAAPSVFIFPPSDEQLKSGTASVVCLLNNFYPREAKVQWKVDNALQSGNSQESVTEQDSKDSTYSLSSTLTLSKADYEKHKVYACEVTHQGLSSPVTKSFNRGEC
notes: Human IgG1 / kappa
B2: humanized anti-GPRC5D antibody h7B4_H1/L2 (antibody, human IgG1, kappa)
heavy: not shown
light: B1 light
notes: Human IgG1 / kappa
B3: humanized anti-GPRC5D antibody h7B4_H2/L2 (antibody, human IgG1, kappa, V domains shown)
VH: EIQLQESGPGLVKPSQTLSLTCTVSGYTITSGYDWSWIRQPPGKGLEWIGYMSYRGSTNYNPSLKSRVTISRDTSKNQFSLKLSSVTAADTAVYYCALTRTYWYNYYYVLDAWGQGTLVTVSS
VL: DIQMTQSPSSLSLSPGERATLSCKASQNINKYLDWYQQKPGQPPRLLIYNTNNLHTGIPDRFSGSGSGTDYTLTISRLEPEDFAVYYCLQRNSWYTFGQGTKVEIKR
notes: Human IgG1 / kappa
B4: humanized anti-GPRC5D antibody h7B4_H3/L1 (antibody, human IgG1, kappa)
heavy: not shown
light: B1 light with D1E, Q3V, M4L, S9G, S10T
notes: Human IgG1 / kappa
B5: humanized anti-GPRC5D antibody h7B4_H5/L1 (antibody, human IgG1, kappa, V domains shown)
VH: B3 VH with Q40K, K44N, G45K, L46M, G50A
VL: B3 VL with D1E, Q3V, M4L, S9G, S10T
notes: Human IgG1 / kappa
B6: E1018 scFv (high binding mutant of C3022) (scFv)
chain: QVQLVQSGAEVKKPGASVKVSCKASGYTFTGYYMHWVRQAPGQGLEWMGRINPNSGGTNYAQKFQGRVTMTRDTSISTAYMELSGLRSDDTAVYYCKSGSVRPPWGQGTLVTVSSGGGGSGGGGSGGGGSQPVLTQPPSASGTPGQRVTISCSGSRSNIGGNIVSWYQQFPGTAPRLLTYRNTRRPSGVPDRFSGSKSGTSASLAISGLQSEDEADYYCAAWDDSLGGVVFGGGTKLTVL
B7: anti-GPRC5D-anti-CD3 bispecific molecule C3048-C3E7036 (bispecific antibody)
scFv: GQVQLVQSGAEVKKPGSSVKVSCKASGGTFSRYAISWVRQAPGQGLEWMGGIIPIFGTANYAQKFQGRVTITADQSTRTAYMDLGRLRSEDTAVYYCALEGFRDSLKRNPFDIWGQGTMVTVSSGGGGSGGGGSGGGGSQSVVTQPPSVSAAPGQKVTISCSGGTTNIGSNYVSWYQQLPGTAPKFLMYENNKRPSGIPDRFSGSKSGTSATLAITGLQTGDEATYYCSTWDSSLNTGLFGGGTKLTVLGGGGSEVQLVESGGGLVQPGGSLRLSCAASGVTFNYYGMSWIRQAPGKGLEWVASITNSGGRIYYPDSVKGRFTISRENTQKTLYLQMNSLRAEDTAVYYCTLDGRDGWVAYWGQGTLVTVSSGGGGSGGGGSGGGGSNFMLTQPSSVSGVPGQRVTISCTGNTGNIGSNYVNWYQQLPGTAPKLLIYRDDKRPSGVPDRFSGSKSGTSASLAITGFQAEDEADYYCQSYSSGFIFGGGTKLTVLGAAAGAGGDYKDDDDKGAAAHHHHHH
notes: Tandem scFv
B8: anti-GPRC5D-anti-CD3 bispecific molecule C3022-C3E7036 (bispecific antibody)
scFv: GQVQLVQSGAEVKKPGASVKVSCKASGYTFTGYYMHWVRQAPGQGLEWMGRINPNSGGTNYAQKFQGRVTMTRDTSISTAYMELSGLRSDDTAVYYCASGSVRHPWGQGTLVTVSSGGGGSGGGGSGGGGSQPVLTQPPSASGTPGQRVTISCSGSRSNIGGNIVSWYQQFPGTAPRLLTYADNQRPSGVPDRFSGSKSGTSASLAISGLQSEDEADYYCAAWDDSLNGVVFGGGTKLTVLGGGGSEVQLVESGGGLVQPGGSLRLSCAASGVTFNYYGMSWIRQAPGKGLEWVASITNSGGRIYYPDSVKGRFTISRENTQKTLYLQMNSLRAEDTAVYYCTLDGRDGWVAYWGQGTLVTVSSGGGGSGGGGSGGGGSNFMLTQPSSVSGVPGQRVTISCTGNTGNIGSNYVNWYQQLPGTAPKLLIYRDDKRPSGVPDRFSGSKSGTSASLAITGFQAEDEADYYCQSYSSGFIFGGGTKLTVLGAAAGAGGDYKDDDDKGAAAHHHHHH
notes: Tandem scFv

molecular target: T2, human GPRC5D (human, UniProt Q9NZD1 1-345); assay: flow cytometry on KHM-1B cells (human GPRC5D), culture supernatant, PE anti-human IgG Fc, rMFI over human IgG isotype control
T2 construct: whole, on cells; also called hGPRC5D; G-protein coupled receptor family C group 5 member D
Method: Human multiple myeloma cell line KHM-1B cells expressing GPRC5D were adjusted to a concentration of 2×10⁶ cells/mL with PBS containing 5% FBS, inoculated in an amount of 100 μL/well to a 96-well U-bottomed microplate, and centrifuged to remove a supernatant. The culture supernatant of each humanized anti-GPRC5D antibody obtained in Example 8)-3-1 or Human IgG isotype control antibody (Calbiochem/Merck Millipore Corp.) adjusted to 14 ng/mL to 30 μg/mL was added thereto in an amount of 100 μL/well, and the plate was left standing at 4° C. for 1 hour. The cells were washed twice with PBS containing 5% FBS. Then, R-Phycoerythrin AffiniPure F(ab′)2 Fragment Goat Anti-Human IgG, Fcγ Fragment Specific (Jackson ImmunoResearch Laboratories, Inc.) diluted 100-fold with PBS containing 5% FBS was added thereto in an amount of 100 μL/well, and the plate was left standing at 4° C. for 1 hour. The cells were washed twice with PBS containing 5% FBS and then resuspended in PBS containing 5% FBS, followed by detection using a flow cytometer (FACSCanto™ II; Becton, Dickinson and Company). The data was analyzed using Flowjo (Tree Star, Inc.). The PE fluorescence intensity of the cell fraction was plotted to a histogram, and the mean fluorescence intensity (MFI) was calculated. The MFI value of the control antibody was subtracted from the MFI value of the GPRC5D antibody to calculate a relative value of MFI (rMFI).

T2 sequence (Q9NZD1 whole entry): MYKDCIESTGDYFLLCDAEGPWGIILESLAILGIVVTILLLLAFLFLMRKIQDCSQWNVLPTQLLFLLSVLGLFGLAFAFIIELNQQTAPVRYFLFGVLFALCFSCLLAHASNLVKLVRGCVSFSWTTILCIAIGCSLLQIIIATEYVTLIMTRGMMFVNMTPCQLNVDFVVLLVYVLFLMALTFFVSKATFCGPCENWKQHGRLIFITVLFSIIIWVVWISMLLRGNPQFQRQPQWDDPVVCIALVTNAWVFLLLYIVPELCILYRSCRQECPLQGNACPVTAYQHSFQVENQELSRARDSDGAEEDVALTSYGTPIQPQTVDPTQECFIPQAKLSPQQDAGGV

| Binder | binding result |
| --- | --- |
| B1 | binds |
| B2 | binds |
| B3 | binds |
| B4 | binds |
| B5 | binds |

Molecular target: T1, human GPRC5D amino-terminal peptide …
Assay: SPR (Biacore T200), kinetic analysis: biotinylated amino-terminal peptide of human GPRC5D on Sensor Chip CAP, scFv as analyte
Method: The binding activity of the anti-GPRC5D antibodies against the amino-terminal peptide of human GPRC5D was tested by SPR using Biacore T200. The amino-terminal peptide of biotinylated human GPRC5D diluted to 2 nM with HBS-EP+ (manufactured by GE Healthcare Bio-Sciences Corp.) was immobilized on Sensor Chip CAP (manufactured by GE Healthcare Bio-Sciences Corp.) by contact at a rate of 10 μL/min for 180 seconds. Then, Kd was calculated by kinetic analysis using a plurality of concentrations of each scFv diluted with HBS-EP+ as analytes.

| Binder | Kd |
| --- | --- |
| B6 | 0.0032 nM |

molecular target: T3, cynomolgus monkey GPRC5D (cynomolgus monkey); assay: flow cytometry on KMS-11_cGPRC5D cells (cynomolgus monkey GPRC5D), PE anti-human IgG Fc detection, rMFI = MFI minus isotype control
T3 construct: whole, on cells; Stably expressed on KMS-11 cells (KMS-11_cGPRC5D); also called cGPRC5D

| Binder | EC50 (read off the curve) |
| --- | --- |
| B1 | ~2 nM |
| B2 | ~3 nM |
| B3 | ~2 nM |
| B4 | ~2 nM |
| B5 | ~2 nM |

molecular target: T2, human GPRC5D; assay: flow cytometry on A4/Fuk cells (endogenous human GPRC5D), Penta-His Alexa Fluor 488 detection, rMFI = MFI minus sample without antibody
Method: Lymphoma cell line A4/Fuk cells (JCRB Cell Bank) were adjusted to an appropriate concentration with PBS containing 5% FBS. LIVE/DEAD Fixable Near-IR Dead Cell Stain Kit was added to the cells, which were then left standing at 4° C. for 30 minutes. The cells were washed twice with PBS containing 5% FBS, then adjusted to a concentration of 1×10⁶ cells/mL with PBS containing 5% FBS, inoculated in an amount of 100 μL/well to a 96-well U-bottomed microplate, and centrifuged to remove a supernatant. Each anti-GPRC5D-anti-CD3 bispecific molecule (C2037-C3E7034 to C3022-C3E7036 prepared in Example 12) diluted with PBS containing 5% FBS were added thereto in an amount of 100 μL/well, and the plate was left standing at 4° C. for 60 minutes. The cells were washed twice with PBS containing 5% FBS. Then, Penta-His Alexa Fluor 488 diluted with PBS containing 5% FBS was added thereto in an amount of 30 μL/well, and the plate was left standing at 4° C. for 30 minutes. The cells were washed twice with PBS containing 5% FBS and then resuspended in PBS containing 5% FBS, followed by detection using a flow cytometer (FACSCanto™ II). The data was analyzed using Flowjo. The mean fluorescence intensity (MFI) of Alexa Fluor 488 in a fraction free from dead cells was calculated. The MFI value of the antibody-unsupplemented sample was subtracted from the MFI value of the antibody-supplemented sample to calculate a relative value of MFI (rMFI).

| Binder | binding result |
| --- | --- |
| B7 | binds |
| B8 | binds |
